Test results: paper PMC8904574, “Bacterial F-type ATP synthases follow a well-choreographed assembly pathway” (Nature Communications, 2022)

B1: α-subunit of the F1 part of the Na+-F1FO-ATP synthase of Acetobacterium woodii, N-terminal StrepI tag (natural protein, UniProt P50000 1-502, looked up)
chain: MNLRPEEISQIIKNEIERYEDKLEVVDVGTVIQVGDGVARVHGLENAMAGELLAFPNEVYGMVLNLEEDNVGCVLLGYDDDIVEGDIVRCTGRIVEVPVGEAMIGRVVNALGFPVDGKGPIVTDHRRPVEVKAAGVIERESVNQPIQTGYKAIDSMIPIGRGQRELIIGDRQTGKTALAIDTIINQKGEDVICIYVAIGQKDSTVAQIVGQLEENNAMDYTIIVSAGAAQLAPLQYIAPYSGVTMAEYFMNEQQKDVLIIYDDLSKHAVAYRAMSLILRRPPGREAYPGDVFYLHSRLLERAAKLKAGGSITALPIIETQAGDVSAYIPTNVISITDGQIFLEAELFRSGIRPAVNPGISVSRVGGSAQIKSMKKVAGPLRIEYAQYRELASFAQFGSDLDDETKAQLAKGERIVEILKQDQYDPMNVEDQVLILYAATNGFLLDIEVKDIREFEKGLIKFAQKKYPEIMTKVKGKDGLSDEVVAAFAECIEAYKKVFSKSV
notes: ATP synthase subunit alpha (gene atpA) of the Na+-F1FO-ATP synthase, Acetobacterium woodii; also called α[WT]; StrepI-α; source: E. coli BL21gold(DE3), purified (Strep-Tactin, SEC); not shown: StrepI, N-terminal, kept
B3: central stalk γε complex of the A. woodii F1 ATP synthase (atpG and atpC expressed bicistronically, His6 tag on ε) (complex, Acetobacterium woodii)
chain 1: MAENVQDIKRRIKSVNSTMQITHAMELVASAKLRKSRELAEGRRPYFEAMIESIGRIVEKSGNARNIFMDQREVKKTAYIIITGDKGLAGGYNVNVAKLVEEHITDKENAVLFTVGSRGRDHFRNREYHIQGEYLGISERPNFFNAKEVTAIVMEGFKNGEYDEVYIAYTKFVSTITQHAQMMKLLPLSAEELITSGKVKTTEETKEEKSKMSDRELTIMTYEPEPEELLKYLIPNFVSSTVYGSMIESAASEQGARRTAMESATTNANEMIDGLTLQYNRVRQAAITQEISEIVGGAEALN
chain 2: MAETFRLKIIAPTGVFFDDDIERVVIRGIEGELAILAEHTPLTTNVAIGTFNIIFADKKKKNGTLLGGIATINPRETIILTDAAEWPEEIDIKRAQEAKERALKRIHDDKFDTARARAALERAIARINSKENV
notes: ATP synthase subunit gamma (gene atpG) of the Na+-F1FO-ATP synthase, Acetobacterium woodii; ATP synthase subunit epsilon (gene atpC) of the Na+-F1FO-ATP synthase, Acetobacterium woodii; source: E. coli BL21gold(DE3), co-expressed, purified (Ni-NTA, SEC); copies: 1 + 1
B4: in vitro assembled αβ heterodimer (StrepI-α with His6-β, in ATP/Mg2+ or other nucleotide/Mg2+) (complex, Acetobacterium woodii)
chain 1: MNLRPEEISQIIKNEIERYEDKLEVVDVGTVIQVGDGVARVHGLENAMAGELLAFPNEVYGMVLNLEEDNVGCVLLGYDDDIVEGDIVRCTGRIVEVPVGEAMIGRVVNALGFPVDGKGPIVTDHRRPVEVKAAGVIERESVNQPIQTGYKAIDSMIPIGRGQRELIIGDRQTGKTALAIDTIINQKGEDVICIYVAIGQKDSTVAQIVGQLEENNAMDYTIIVSAGAAQLAPLQYIAPYSGVTMAEYFMNEQQKDVLIIYDDLSKHAVAYRAMSLILRRPPGREAYPGDVFYLHSRLLERAAKLKAGGSITALPIIETQAGDVSAYIPTNVISITDGQIFLEAELFRSGIRPAVNPGISVSRVGGSAQIKSMKKVAGPLRIEYAQYRELASFAQFGSDLDDETKAQLAKGERIVEILKQDQYDPMNVEDQVLILYAATNGFLLDIEVKDIREFEKGLIKFAQKKYPEIMTKVKGKDGLSDEVVAAFAECIEAYKKVFSKSV
chain 2: MAQNIGKVVQVIGPVVDVKFQKDKLPKLNNAVNIELNGHTLVIEVAQQLGDDIVRCIAMDSTDGLMRNQEAVDTGSAIQVPVGKATLGRMFNVLGEPIDGKPFDTKDVVMHPIHRHPPSFEEQQTQPEMFETGIKVVDLICPYVRGGKIGLFGGAGVGKTVLIQELINNIATQHGGLSVFAGVGERTREGNDLYYEMMESGVINKTALCFGQMNEPPGARMRIALAGLTMAEYFRDDEGQDVLLFIDNIFRFTQAGSEVSALLGRMPSAVGYQPTLATEMGALQERITSTSKGSITSVQAVYVPADDLTDPAPATTFAHLDATTVLSRAITEKGIYPAVDPLDSTSRILDPKIVGQEHYETAREVQEILQRYKELQDIIAILGMDELSDADKITVSRARKVERFLSQPFNVAEQFTGTAGVYVTIGDTIKGFKEILEGQHDDLPESAFLLVGTIEDAVVKAKKIKG
notes: ATP synthase subunit alpha (gene atpA), Acetobacterium woodii; as m1; ATP synthase subunit beta (gene atpD), Acetobacterium woodii; as m2; also called in vitro αβ; source: assembled in vitro from subunits purified from E. coli BL21gold(DE3); not shown: StrepI, N-terminal, kept; His6, N-terminal, kept; copies: 1 + 1

Columns and labels:
Settings in all cases: both partners purified
[1] = target: B3; experiment: native MS; LILBID-MS; purified subunits incubated in 50 mM KPi, 200 mM NaCl, 2 mM ATP, 2 mM MgCl2, 10% glycerol, pH 7.4, 4 °C, 1 h; exchanged into 100 mM ammonium acetate, 2 mM ATP, 2 mM MgCl2, pH 7.4
[2] = target: T1, α-subunit mutant α[R363Q], A. woodii (Acetobacterium woodii, UniProt P50000 1-502, R363Q); experiment: SEC; HPLC on a bioZen 1.8 µm SEC-3 column, 60 µg protein, elution buffer B (50 mM KPi, 200 mM NaCl, 2 mM ATP, 2 mM MgCl2, pH 7.4), 4 °C
T1 construct: ATP synthase subunit alpha (gene atpA), Acetobacterium woodii, point mutant; source: E. coli BL21gold(DE3), purified (Strep-Tactin, SEC)

[3] = target: T2, α-subunit mutant α[R363K], A. woodii (Acetobacterium woodii, UniProt P50000 1-502, R363K); experiment: as above
T2 construct: ATP synthase subunit alpha (gene atpA), Acetobacterium woodii, point mutant; source: E. coli BL21gold(DE3), purified (Strep-Tactin, SEC)

[4] = target: B1; experiment: native MS; LILBID-MS; purified subunits incubated in 50 mM KPi, 200 mM NaCl, 2 mM ATP, 2 mM MgCl2, 10% glycerol, pH 7.4, 4 °C, 1 h; exchanged into 100 mM ammonium acetate, 2 mM ATP, 2 mM MgCl2, pH 7.4
[5] = target: B4; experiment: as above
[6] = target: T3, α[R363Q]β[WT] heterodimer assembled in vitro in ATP/Mg2+ (Acetobacterium woodii, UniProt P50000 1-502; P50002 1-466, R363Q); experiment: as above
T3 construct: ATP synthase subunit alpha (gene atpA), Acetobacterium woodii; as m9; ATP synthase subunit beta (gene atpD), Acetobacterium woodii; as m2; source: assembled in vitro from subunits purified from E. coli BL21gold(DE3); not shown: His6, N-terminal, kept; copies: 1 + 1

## B1
[1]
  stoichiometry N: ≤ 1

B2: β-subunit of the F1 part of the Na+-F1FO-ATP synthase of Acetobacterium woodii, N-terminal His6 tag (natural protein, UniProt P50002 1-466, looked up)
chain: MAQNIGKVVQVIGPVVDVKFQKDKLPKLNNAVNIELNGHTLVIEVAQQLGDDIVRCIAMDSTDGLMRNQEAVDTGSAIQVPVGKATLGRMFNVLGEPIDGKPFDTKDVVMHPIHRHPPSFEEQQTQPEMFETGIKVVDLICPYVRGGKIGLFGGAGVGKTVLIQELINNIATQHGGLSVFAGVGERTREGNDLYYEMMESGVINKTALCFGQMNEPPGARMRIALAGLTMAEYFRDDEGQDVLLFIDNIFRFTQAGSEVSALLGRMPSAVGYQPTLATEMGALQERITSTSKGSITSVQAVYVPADDLTDPAPATTFAHLDATTVLSRAITEKGIYPAVDPLDSTSRILDPKIVGQEHYETAREVQEILQRYKELQDIIAILGMDELSDADKITVSRARKVERFLSQPFNVAEQFTGTAGVYVTIGDTIKGFKEILEGQHDDLPESAFLLVGTIEDAVVKAKKIKG
notes: ATP synthase subunit beta (gene atpD) of the Na+-F1FO-ATP synthase, Acetobacterium woodii; also called β[WT]; His6-β; source: E. coli BL21gold(DE3), purified (Ni-NTA, SEC); also co-expressed with other F1 subunits in E. coli as the tagged subunit of the in cellula complexes; not shown: His6, N-terminal, kept
[2]
  binding result: binds
[3]
  binding result: binds
[1]
  stoichiometry N: ≤ 1
[4]
  binding result: binds

## B3
[5]
  binding result: binds
[6]
  binding result: binds

## B4
[1]
  stoichiometry N: 3
